Laboratory results published in the supplement of paper PMC7877785.
± gives the uncertainty stated by the source.

Experiment: self-splicing fitness, log relative to wild type (ln ratio); higher = more splicing; Tetrahymena group I intron in knt gene, E. coli kanamycin selection, DiMSum; sequences stand for … in CUCUCU…GGAGGGAAAAGUUAUCAGGCAUGCACCUGGUAGCUAGUCUUUAAACCAAUAGAUUGCAUCGGUUUAAAAGGCAAGACCGUCAAAUUGCGGGAAAGGGGUCAACAGCCGUUCAGUACCAAGUCUCAGGGGAAACUUUGAGAUGGCCUUGCAAAGGGUAUGGUAAUAAGCUGACGGACAUGGUCCUAACCACGCAGCCAAGUCCUAAGUCAACAGAUCUUCUGUUGAUAUGGAUGCAGUUCACAGACUAAAUGUCGGUCGGGGAAGAUGUAUUCUUCUCAUAAGAUAUAGUCGGACCUCUCCUUAAUGGGAGCUAGCGGAUGAAGUGAUGCAACACUGGAGCCGCUGGGAACUAAUUUGUAUGCGAAAGUAUAUUGAUUAGUUUUGGAGUACUCGUGGUCG
In short: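 Six replicate transformations of E. coli BL21(DE3) with a pET-22b(+) library were grown overnight at 37°C or 30°C. The library randomised all eight P1ex-region intron nucleotides, the intron lying in the knt kanamycin-resistance gene, and plates were LB agar with or without 25 μg/mL kanamycin plus 100 μg/mL carbenicillin, 50 μM IPTG and 0.2% rhamnose. Pooled colonies were amplicon-sequenced on an Illumina HiSeq 2500, and fitness is the DiMSum error-weighted combination of wild-type-normalised replicate fold changes, kanamycin versus none.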

Sequence | self-splicing fitness (ln) (30 °C) | self-splicing fitness (ln) (37 °C)
GUUUAGCAAUAUUACGUUAG | -2.24 ± 0.21 | -0.81 ± 0.18
CUUGAGCAAUAUUACGGCGG | -1.13 ± 0.1 | -0.746 ± 0.14
AUUUAGCAAUAUUACGAUUA | -1.4 ± 0.2 | -0.561 ± 0.16
AGCUAGCAAUAUUACGCUCU | -2.24 ± 0.18 | -1.57 ± 0.24
CCUAAGCAAUAUUACGCUAA | – | -2.31 ± 0.27
UCGAAGCAAUAUUACGAAGU | -4.55 ± 0.32 | -1.43 ± 0.19
UGCAAGCAAUAUUACGGCAC | -3.59 ± 0.4 | -3.28 ± 0.33
AAUGAGCAAUAUUACGGGUC | -2.57 ± 0.37 | –
GGAUAGCAAUAUUACGGCUC | -0.0157 ± 0.31 | -1.59 ± 0.35
UCCGAGCAAUAUUACGCUUG | -3.49 ± 0.28 | -2.09 ± 0.25
CGACAGCAAUAUUACGUGUA | -3 ± 0.14 | -1.59 ± 0.1
AUCUAGCAAUAUUACGUGUG | -2.16 ± 0.1 | -1.49 ± 0.12
CAACAGCAAUAUUACGGAAC | -4.2 ± 0.28 | -3.48 ± 0.23
GUUCAGCAAUAUUACGUGCC | -2.59 ± 0.2 | -1.19 ± 0.19
GCCGAGCAAUAUUACGGACC | -2.47 ± 0.35 | -1.51 ± 0.39
UCCGAGCAAUAUUACGUAGU | -2.97 ± 0.16 | -2.71 ± 0.18
CACAAGCAAUAUUACGGGUG | -3.99 ± 0.1 | -2.94 ± 0.11
GCUAAGCAAUAUUACGUCAC | -3.38 ± 0.44 | -2.35 ± 0.24
GCAAAGCAAUAUUACGAGCG | -1.06 ± 0.077 | -0.631 ± 0.093
CGACAGCAAUAUUACGGCCA | -1.16 ± 0.15 | -0.534 ± 0.18

Sequence | self-splicing fitness (ln) (30 °C) | self-splicing fitness (ln) (37 °C)
AACGAGCAAUAUUACGUAGA | -2.99 ± 0.12 | -2.43 ± 0.17
UUUUAGCAAUAUUACGCGGA | -2 ± 0.17 | -1.44 ± 0.17
CACCAGCAAUAUUACGAGUU | -2.42 ± 0.075 | -1.65 ± 0.087
AGGCAGCAAUAUUACGUGAC | -3.86 ± 0.21 | -1.84 ± 0.14
CGUCAGCAAUAUUACGAGGG | -3.93 ± 0.1 | -1.81 ± 0.099
UGCAAGCAAUAUUACGAUCC | -1.21 ± 0.14 | -0.955 ± 0.2
CUGAAGCAAUAUUACGGCCG | -0.134 ± 0.2 | 0.451 ± 0.27
UGGCAGCAAUAUUACGUUGA | -1.43 ± 0.13 | -0.707 ± 0.14
UGCCAGCAAUAUUACGUGAC | -3.43 ± 0.16 | -3.2 ± 0.22
AACAAGCAAUAUUACGCCAA | -2.32 ± 0.14 | -2.55 ± 0.16
CUUGAGCAAUAUUACGACGA | -2.83 ± 0.42 | -2.51 ± 0.45
AGGCAGCAAUAUUACGCUGC | – | -2.5 ± 0.38
GUAAAGCAAUAUUACGGUAG | -0.977 ± 0.054 | -1.37 ± 0.099
GACCAGCAAUAUUACGUGUC | -3.52 ± 0.16 | -3.05 ± 0.24
AUUUAGCAAUAUUACGUAGC | -3 ± 0.23 | -1.64 ± 0.25
CGAAAGCAAUAUUACGCAGA | -4.25 ± 0.42 | -0.12 ± 0.17
CUCUAGCAAUAUUACGCGAU | -3.29 ± 0.17 | -2.88 ± 0.19
GCUAAGCAAUAUUACGGGUA | -1.32 ± 0.097 | 0.109 ± 0.09
GGGAAGCAAUAUUACGGCAC | 0.0244 ± 0.3 | -0.976 ± 0.36
